Reference: patent CN111732654A (WUHAN INST OF BIOLOGICAL PRODUCTS CO LTD, dated 2020)

Experiments:
[1] = target: SARS-CoV-2刺突S1-His重组蛋白 (Sino公司，货号:40591-V08H) (SARS-CoV-2 (2019-nCoV), UniProt P0DTC2 16-685)
[2] = target: SARS-CoV-2刺突蛋白S1的RBD结构域重组蛋白 (Sino公司，货号40592-V05H) (SARS-CoV-2 (2019-nCoV), UniProt P0DTC2 319-541)

B1: 单克隆抗体1E10 (人源抗SARS-CoV-2抗体1E10) (antibody, V domains shown)
VH: EVQLVQSGAEVKKPGSSVKVSCKASGGTFSSYAISWVRQAPGQGLEWMGRIIPILGIANYAQKFQGRVTITADKSTSTAYMELSSLRSEDTAVYYCAREVSDFDWLYRSHYGMDVWGQGTTVTVSS
VL: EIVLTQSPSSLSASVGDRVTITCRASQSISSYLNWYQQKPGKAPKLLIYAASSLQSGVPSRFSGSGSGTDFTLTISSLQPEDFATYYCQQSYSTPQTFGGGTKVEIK
- EC50 [1]: 0.029 nM
- EC50 [2]: 0.044 nM
